Data set [1] has as its target CI∆58, truncated CI repressor from bacteriophage TP901-1 (residues 1–122) (bacteriophage TP901-1) (UniProt O48503). Description: SEC; HiLoad 26/60 Superdex 75; native molecular weight estimated by comparison with globular protein standards.
Data set [2] shares this target. Put plainly: native MS; apo CI∆58 6 μM in 250 mM ammonium acetate, pH 6.8; nano-ESI, quadrupole time-of-flight.
The subject of data set [3] is CI-NTD (bacteriophage TP901-1 (host Lactococcus lactis)). Put plainly: EMSA. The following applies: 0.4 nM DNA; EMSA: ~0.4-0.5 nM Cy5 DNA, binding solution of ref 3 (not given), on ice 30 min, 2% agarose, 1x TBE, 0 °C; NMR: 300 mM NaCl, 298 K; native MS: 250 mM …. For orientation: In EMSA bound probe runs differently from free probe, usually more slowly.
Data set [4] addresses T1, CI∆58 (CI repressor, C-terminally truncated) (bacteriophage TP901-1 (host Lactococcus lactis)) (UniProt O48503).
T1 sequence: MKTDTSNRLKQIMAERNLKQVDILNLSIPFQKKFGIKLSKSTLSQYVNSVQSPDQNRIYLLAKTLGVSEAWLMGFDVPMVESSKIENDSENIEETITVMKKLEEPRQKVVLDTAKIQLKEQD
Put plainly: EMSA. The following applies: 0.4 nM DNA; EMSA: ~0.4-0.5 nM Cy5 DNA, binding solution of ref 3 (not given), on ice 30 min, 2% agarose, 1x TBE, 0 °C; NMR: 300 mM NaCl, 298 K; native MS: 250 mM ….

Data set [5] concerns the molecule itself. Description: SEC; HiLoad 26/60 Superdex 75; native molecular weight estimated by comparison with globular protein standards.

As for “CI∆58, truncated CI repressor from bacteriophage TP901-1 (residues 1–122) (from UniProt O48503 1-122) (domain or fragment)”, the stoichiometry N in data set [1] and in data set [2] was 2 in each case.

On to P5 fragment containing OL, for which the Kd in data set [3] was found to be 1100 nM; in data set [4], 3 nM.

B1: CI-CTD1, synthetic peptide of the dimerization region of CI repressor from bacteriophage TP901-1 (residues 90–125) (peptide)
peptide: ENIEETITVMKKLEEPRQKVVLDTAKIQLKEQDEQ
notes: CI repressor of Lactococcus lactis bacteriophage TP901-1, dimerization region CTD1; printed as residues 90-125 and as a 35 residues peptide; Delivered as a lyophilized chloride salt, purity 98.45%; solubilised at pH 12 and brought back to pH 7.5; source: synthetic peptide, bought: CASLO
On to B1, for which the “stoichiometry N” value in data set [5] was 4.

The stoichiometry N is the number of molecules, sites or subunits per partner or assembly. As a reminder, the Kd is the free concentration of one partner at which half of the binding sites on the other are occupied at equilibrium, for simple one-to-one binding. Lower therefore signals tighter binding.

These data come from paper PMC4941734, “Structural and dynamics studies of a truncated variant of CI repressor from bacteriophage TP901-1” (Scientific Reports, 2016).
